According to paper PMC12700824:
Residue numbers refer to the chain shown, from its start. Numbers in names are those of the source.

Experiments:
[1] = target: FAM118B-L32R, full length, tagged with mEGFP or with mCherry, Q9BPY3; assay: FCCS (fluorescence cross-correlation spectroscopy) in living U2OS cells; details: chain shown with the change; mEGFP-F122R (green label) coexpressed with mCherry-L32R (red label); n = 15 cells per condition; read off a plot
[2] = target: FAM118B-F122R, full length, tagged with mEGFP or with mCherry, Q9BPY3; assay: as above; details: chain shown with the change, n = 15 cells per condition, read off a plot

B1: mEGFP–FAM118B WT (full-length human FAM118B fused at its N terminus to mEGFP), Q9BPY3 binder:F122R; target:L32R (protein)
chain: MASTGSQASDIDEIFGFFNDGEPPTKKPRKLLPSLKTKKPRELVLVIGTGISAAVAPQVPALKSWKGLIQALLDAAIDFDLLEDEESKKFQKCLHEDKNLVHVAHDLIQKLSPRTSNVRSTRFKDCLYEVFDDLESKMEDSGKQLLQSVLHLMENGALVLTTNFDNLLELYAADQGKQLESLDLTDEKKVLEWAQEKRKLSVLHIHGVYTNPSGIVLHPAGYQNVLRNTEVMREIQKLYENKSFLFLGCGWTVDDTTFQALFLEAVKHKSDLEHFMLVRRGDVDEFKKLRENMLDKGIKVISYGDDYADLPEYFKRLTCEISTRGTSAGMVREGQLNGSSAAHSEIRGCST
response [1]: 88%

B2: mEGFP–FAM118B WT (full-length human FAM118B fused at its N terminus to mEGFP), Q9BPY3 binder:L32R; target:F122R (protein)
chain: B1 chain with L32R, R122F
response ([2]; mEGFP-L32R (green label) coexpressed with mCherry-F122R (red label)): 90%

B3: mEGFP–FAM118B WT (full-length human FAM118B fused at its N terminus to mEGFP), Q9BPY3 binder:F122R; target:F122R (protein)
chain: B1 chain
response ([2]; mEGFP-F122R (green label) coexpressed with mCherry-F122R (red label)): 6%
